# Read-outs that look alike come from different tables or passages of the source.
# T1: Pfs230 D1D2 (aa 587–889) (Plasmodium falciparum, UniProt P68874 587-889)
# T1 chain: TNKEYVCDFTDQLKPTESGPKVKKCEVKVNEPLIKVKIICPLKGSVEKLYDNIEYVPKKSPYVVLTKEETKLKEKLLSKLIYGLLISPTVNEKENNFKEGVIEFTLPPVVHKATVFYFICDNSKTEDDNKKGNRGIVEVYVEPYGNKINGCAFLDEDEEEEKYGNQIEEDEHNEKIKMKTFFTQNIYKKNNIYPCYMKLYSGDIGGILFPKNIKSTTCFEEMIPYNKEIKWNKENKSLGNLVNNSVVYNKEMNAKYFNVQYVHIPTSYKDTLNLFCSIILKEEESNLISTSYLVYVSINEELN
# T2: Pfs230 D1 (aa 587–731) (Plasmodium falciparum, UniProt P68874 587-731)
# T2 chain: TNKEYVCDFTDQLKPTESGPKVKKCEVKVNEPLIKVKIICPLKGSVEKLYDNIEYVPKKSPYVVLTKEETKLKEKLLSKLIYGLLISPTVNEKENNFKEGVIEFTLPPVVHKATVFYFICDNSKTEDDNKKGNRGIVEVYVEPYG
# T3: Pfs230 Pro-D1D2 (aa 532–889) (Plasmodium falciparum, UniProt P68874 532-889)
# T3 chain: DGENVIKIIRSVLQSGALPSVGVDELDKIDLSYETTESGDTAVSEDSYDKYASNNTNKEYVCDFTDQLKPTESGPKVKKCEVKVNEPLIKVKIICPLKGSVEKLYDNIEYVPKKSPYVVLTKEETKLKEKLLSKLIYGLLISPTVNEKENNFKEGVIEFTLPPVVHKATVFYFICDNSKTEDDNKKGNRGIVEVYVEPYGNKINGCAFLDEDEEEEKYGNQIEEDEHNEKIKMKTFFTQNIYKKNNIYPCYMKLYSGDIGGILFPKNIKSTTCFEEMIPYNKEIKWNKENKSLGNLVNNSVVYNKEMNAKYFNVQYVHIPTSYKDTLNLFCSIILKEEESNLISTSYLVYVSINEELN
# Experiments:
# Pfs230 D1D2 (aa 587–889) [1] = target: T1, Pfs230 D1D2 (aa 587–889); experiment: BLI
# Pfs230 D1 (aa 587–731) [2] = target: T2, Pfs230 D1 (aa 587–731); experiment: BLI
# Pfs230 D1D2 (aa 587–889) [3] = target: T1, Pfs230 D1D2 (aa 587–889); experiment: BLI
# Pfs230 D1 (aa 587–731) [4] = target: T2, Pfs230 D1 (aa 587–731); experiment: BLI
# Pfs230 D1D2 (aa 587–889) [5] = target: T1, Pfs230 D1D2 (aa 587–889); experiment: BLI; representative curve
# Pfs230 D1 (aa 587–731) [6] = target: T2, Pfs230 D1 (aa 587–731); experiment: BLI; representative curve
# Pfs230 D1D2 (aa 587–889) [7] = target: T1, Pfs230 D1D2 (aa 587–889); experiment: BLI
# [8] = target: T3, Pfs230 Pro-D1D2 (aa 532–889); experiment: BLI; representative curve; only three curves fitted
# [9] = target: T3, Pfs230 Pro-D1D2 (aa 532–889); experiment: BLI; only three curves fitted
# [10] = target: T3, Pfs230 Pro-D1D2 (aa 532–889); experiment: BLI
# Pfs230 D1D2 (aa 587–889) [11] = target: T1, Pfs230 D1D2 (aa 587–889); experiment: BLI; representative curve
Binder,koff (Pfs230 D1D2 (aa 587–889) [1]),koff (Pfs230 D1 (aa 587–731) [2]),Kd (Pfs230 D1D2 (aa 587–889) [3]),Kd (Pfs230 D1 (aa 587–731) [4]),Kd (Pfs230 D1D2 (aa 587–889) [5]),Kd (Pfs230 D1 (aa 587–731) [6]),koff (Pfs230 D1D2 (aa 587–889) [7]),Kd [8],koff [9],koff [10],Kd (Pfs230 D1D2 (aa 587–889) [11])
nanobody F10 (VHH) VHH: QVQLQESGGGLVQAGGSLRLSCAASGRTFSDYFMGWFRQAPGKEREFVAAVSWSGGSTYYADSVKGRFTISRDNAKNTVFLQMNSLKPEDTAVYYCAGGGSYYPMSPYDGMDYWGKGTQVTVSS,8.19e-05 s⁻¹,4.8e-05 s⁻¹,0.45 nM,0.12 nM,0.4 nM,0.26 nM,–,–,–,–,–
F10-Fc (Fc fusion) QVQLQESGGGLVQAGGSLRLSCAASGRTFSDYFMGWFRQAPGKEREFVAAVSWSGGSTYYADSVKGRFTISRDNAKNTVFLQMNSLKPEDTAVYYCAGGGSYYPMSPYDGMDYWGKGTQVTVSS,–,–,–,–,–,–,3.99e-05 s⁻¹,446 nM,0.00171 s⁻¹,–,–
nanobody D6 (VHH) VHH: QVQLQESGGGLVQAGDSLRLSCAASGRTFSSYFMGWFRQAPGKEREFVAAISWSGGSTYYADSVKGRFTISRDNVKNTVYLQMNSLEPEDAAVYYCAGGGSYYPMSPRNGMDYWGKGTQVTVSS,0.000108 s⁻¹,0.000158 s⁻¹,0.63 nM,0.39 nM,0.51 nM,0.79 nM,–,–,–,–,–
nanobody G5 (VHH) VHH: QVQLQESGGGLVQAGGSLRLSCAASGRTFNDYAMYWFRQAPGKEREFVADITWSGSSTYYADSVKGRFTISRDNAKNTVFLQMNSLKPEDTALYYCAADSRYYGIGIGTPRYWGQGTQVTVSS,0.000579 s⁻¹,0.000635 s⁻¹,9.09 nM,3.36 nM,8.18 nM,3.25 nM,–,–,–,–,–
nanobody B4 (VHH) VHH: QVQLQESGGGLVQPGGSLRLSCAASGFTLDYYGIGWFRQAPGKEREGVSCISSSDGSTYYADSVKGRFTISRDNAKNTVYLQMNSLKPEDTAVYYCAADLTGIGCTTAQAMGVIGDFGDFGSWGQGTQVTVSS,0.00152 s⁻¹,0.00138 s⁻¹,4.8 nM,1.71 nM,4.62 nM,2 nM,–,–,–,–,–
nanobody E11 (VHH) VHH: QVQLQESGGGLVQPGGSLRLSCAASGFTSDYYGIGWFRQAPGKEREGVACISSSDGSTYYADSVKGRSTISRDNAKNTVYLQMNSLKPEDTAVYYCAADLSGIGCTTAQAMDVIGDFGDFGSWGQGTQVTVSS,0.000733 s⁻¹,0.000539 s⁻¹,2.54 nM,2.61 nM,2.4 nM,3.16 nM,–,–,–,–,–
nanobody A10 (VHH) VHH: QVQLQESGGGLVQAGSSLRLSCAASGGTFSNYAMGWFRQAPGKEREFVAAIGWSGGTYYTDSVEGRFTISRDNAKNTVYLQMNSLKPEDTAVYYCAAKRSGSSWSERGYDYWGQGTQVTVSS,0.000805 s⁻¹,0.000788 s⁻¹,5.87 nM,3.18 nM,5.5 nM,4.56 nM,–,–,–,–,–
nanobody D11 (VHH) VHH: QVQLQESGGGLVQAGSSLRLSCAASGRTFSSYAMGWFRQAPGKEREFVAAIGWSGGTYYTDSVEGRFTISRDNAENTVYLQMNSLKPEDTAVYYCAAKASGSSWSERGYDYWGQGTQVTVSS,0.00262 s⁻¹,0.00256 s⁻¹,16.1 nM,8.31 nM,15.5 nM,10.8 nM,–,–,–,–,–
nanobody G2 (VHH) VHH: QVQLQESGGGLVQAGGSLRLSCAASGRTFSNYFMGWFRQAPGKEREFVAAVSWSGGSTYYADSVKGRLTISRDNAKNTVYLQMNSLKPEDTAVYYCAAGERYFPMEPRRGYDYWGQGTQVTVSS,0.00016 s⁻¹,0.000179 s⁻¹,1.11 nM,0.49 nM,1.07 nM,0.36 nM,–,–,–,–,–
nanobody D1 (VHH) VHH: QVQLQESGGGLVQAGDSLRLSCTASGRTFSNHAMGWFRQAPGKEREIVAVIFGTGRNSWYVDSVKGRFTISRDNAKNTVALQMNRLKPEDTAVYYCASGRTWYSGSSMAEYDYWGQGTQVTVSS,–,3.72e-05 s⁻¹,–,0.14 nM,–,0.29 nM,–,–,–,–,–
F5-Fc (Fc fusion) QVQLQESGGGLVQPGGSLRLSCAASGFTLDRYAIGWFRQAPGKEREGVSCISSSDGSTYYADSVKGRFTISRDNAKNTVYLQMNSLKPEDTAVYYCARDHGPCTVLADILYDYGMDYWGKGTQVTVSS,–,–,–,–,–,–,0.000351 s⁻¹,–,–,0.000644 s⁻¹,0.66 nM
nanobody F5 (VHH) VHH: QVQLQESGGGLVQPGGSLRLSCAASGFTLDRYAIGWFRQAPGKEREGVSCISSSDGSTYYADSVKGRFTISRDNAKNTVYLQMNSLKPEDTAVYYCARDHGPCTVLADILYDYGMDYWGKGTQVTVSS,0.000313 s⁻¹,0.000316 s⁻¹,1.22 nM,0.81 nM,1.13 nM,1.01 nM,–,–,–,–,–
nanobody A11 (VHH) VHH: QVQLQESGGGLVQPGESLRLSCAASGRTSSSYAMGWFRQAPGKEREFVASISWSGGSTYYADSVKGRFTLSRDNAKNTVYLQMNSLKPEDTAVYYCAADGIFYSDYPLSVDDFHSWGQGTQVTVSS,0.000152 s⁻¹,0.00039 s⁻¹,1.43 nM,1.56 nM,1.25 nM,1.47 nM,–,–,–,–,–
nanobody E1 (VHH) VHH: QVQLQESGGGLVQPGGSLRLSCAASGRTFSSYFMGWFRQAPGKGRVFVASISWSGGSTYYADSVKGRFTISRDNAENTVYLQMNSLKPEDTAVYYCAAGTRATPLDWASGMDYWGKGTQVTVSS,0.000409 s⁻¹,0.00019 s⁻¹,3.91 nM,0.75 nM,3.58 nM,0.43 nM,–,–,–,–,–

# — PMC9788556 (2022)
